Assay: yeast display, Sf9 membrane polyspecificity reagent, FACS + sequencing; frameworks hold sequencing errors
Outline: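 Polyreactivity labels are assigned by the sorting gate from which each nanobody was recovered. The gates were low and high (top ~1%), set on anti-HA fluorescence for expression and streptavidin fluorescence for reagent binding. Before sorting, galactose-induced (36–48 hours) yeast display cells were stained for 1 hour at 4 °C with 10% biotinylated, detergent-solubilized Sf9 membrane reagent.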

Sequence | polyreactivity (PSR sort gate)
EEELVESGGGLVQAGGSLRLSCAASGSTFLVYAMGWYRQAPGKERELVAVITYSTVRTYYADSVKGRFTISRDNAKNTVYLQMNSLKPEDTAVYYCNADIEFAVLGQGMDYWGQGTQVTVSS | low polyreactivity
EVQLVESGAGLLQAGGSLRISCAASGITLAYYAMGGYRQAPGTERELVAVINIGVSTDYADSVKGRFTISRDNAKNTVYVQMTSLKPEDTAVYYSAAGWGRRWPQYNYWGQGTQVTVSS | high polyreactivity
EVQLVESGGGLVQAGGSLRLSCAASGRTFIWNAMGWYRQAPGKERELVAAITRNGDSTYYADSVKGRFTISRDNAKNTVYLQMNSLKPEDTAVYYCAAYSRVFVYRTVGNYGWMNYWGQGTQVTVSS | high polyreactivity
EVQLVETGGGLVQAGGSLRLSCAPSGFNFGVYAMGCYRQEPGKERELFAAISTTVGSTYYADSVKWRFTISRDNEKNTVYLQMTSLKPEDTAVYYCATGWSNCGQGTQVTVSS | low polyreactivity
HAQLQDSGGGLVQAGGSLRLSCAASGNISSEYYMGWGRQAPGSGREFVAAIDYGGTTNYADNVKGRFTISRDNAKNTVYLQMNSLRPEDTAVYYCAASCDTIGLFAYWGQGTQVTVIS | high polyreactivity
HAQQQESGGGLVQAGGSLRRSCAASGSIFRFSGRGWYRLAPGKERELVASIGFGSITYYADRVKGRFTISRDNANNTVYLQMNSLKPEDTAVYYCAVQVQDESWLDYWGQGTQVTVSC | low polyreactivity
HDQHVESGGGLVQAGGSLRLSCAASGRIYGSTMGWYRQAPGKERELVAAITRNGGSTYYADSVKGRFTISRDNSKNTVYLQMNSVKPEDTEVYYCAARNAFGTYYYWGQGTQVNVSS | high polyreactivity
HDQLVESGGGLVQAGGSLRLSCAASGFTFYRNAMGWYRQAPGQERELVAAITRGGSTTYADSVKGRFTISRANAKNTVYLQMISLKPDDTAVYYSAKVARADVPGYYKYYYWGQGTQVTVSS | high polyreactivity
HVKLVESGGGLVQAGGSLRLSCAASGSIFEPYVMGWYRQAPGKERELVAAIRQTRGSTYYADSVKGRFTISRDNAKNTVYLQMNSLKPEDTAVYYCNAEQNPSGLYDYRGVEGEMGYWGQGTQVTVSS | low polyreactivity
HVQHVESGGGLVQAGGSLRLSCAASGFTFFYYTMGWYRQAPGKERELVAAISKGGGSTFYADSVKGRFTISRDNAKNTVYLQMNSLKPEDTAVYYCAASYVRGYDYWGQGTQVTVSS | high polyreactivity
HVQHVESGGGLVQAGGSLRLSCADSGNTFSDNAMGLYRQAPGKVRELVAAISTSGGSTYYADSVKGRFTISRDNAKNTVYLQMNSLNPEDTADYYFAAQFTVLWYEYYYWVQGTQVTVSS | high polyreactivity
HVQHVESGGGLVQAGGSLRVSCAASGSIFYTNVMGWYRQAPGKERELVARIDSGGSTNYADSVKGRFTISRDNAKNTVYLQMYSLKPEDTAVYYCAADWYIYDYWGQGTQVTVSS | low polyreactivity
HVQLEESGGGLVQAGGSLRLSCAASGITFYKYVMGSYRQAPGKERELVAAITYSGGSRYYADSVKGRFTISRDNAKNTVYLPMNSLKPEDSAVYYWNAYYYWYFPYTYDYWGQGTQVTVSS | high polyreactivity
HVQLLESGGGLVQAGGSLRLSCAASGFTFRSYAMGWYRQAPGKERELVAAISGSGGSTYYADSVKGRFTISRDNAKNTVYLQMNSLKPEVTAVYYCAARRSKNSALGGRVSIGDYWGQGTQVTVSS | high polyreactivity
HVQLLESGGGLVQAGGSLRLSCAASGITFQFYPKGWYRQAPGKERELVAAISYSGGSTYYADSVKGRFTISRDNAKNTVYLQMNSLKAADTAVYYCAAVSYSSRGNYWGQGTQVTVSS | high polyreactivity
HVQLQERGGGLVQAGGSLRLSCAASGSIFQATYMGWYRQAPGKEREFVASITYGSITNYADSVKGRFTIGRDNAKDTLYLQMNSLKPEDTAVYYCAVDRHYIPAFHYWGQCTQVTVSS | low polyreactivity
HVQLQESGGGLVQACGSLRLSCAASGTIFKVVDMGLYRQSPAKEREFVATIGEGGNTYYADSVKGRFTISRDNAKNTVYLQMNSLKPEDTAVYFYEVVMGTSYRYTYWGQGTHVTVSS | low polyreactivity
HVQLQESGGGLVQAGGSLRLSCAASGNISYSRNMGWYRQAPGKERELVAAIDRGAITYYADSVKGRFTISRDNAKNTVYLQRYSLKPEDTAVYYCAAEYHDRWDHRYWGQGTQVTVSS | high polyreactivity
HVQLQESGGGLVQAGGSLRLSCAASGSIFQATYMGWYRQAPGKEREFVASITYGSITNYADSVKGRFTIGRDNAKETLYLQMNSLKPEDTAVYYCAVDRHYIPAFHYWGQGTQVTVSS | low polyreactivity
HVQLVDSGGGIVQAGGSLRLSCAASGSTFYGNAMGWYRQAPGKEMEFVAAISRGGGSTYYADSVKGRFTISRDNAKNTVYVQMNLLKTEDTADFYCAATRYLHPWYYQYYYCGQGTQVTVSS | low polyreactivity
HVQLVDSGGGLVQAGGSLRLSCAASGRTFSHNAMGWYRQAPGKDRELVATITYGAGRTSYADSVKGRFTISRDNAKNTLYLQMNSLKPEDTAVYYCNADYFTYRGGEYRRYEYWGQGTQVTVST | high polyreactivity
HVQLVESAGGLVQAGGSLRLSCAASGSTIYGYAMGLYRQAPGKERELVAAITGSGGSTYYADSVKGRFTISRDNAKNTVYLQMNSLKPEDTAVYYCNAVRRYGLEYNYWGQGTQVTVSS | high polyreactivity

Sequence | polyreactivity (PSR sort gate)
HVQLVESGGGLVQAGGCLRLSCAASGRICIFYAMGWYRQAPGKERELVAAISSGPSTTYADSVKGRFTISRDNAKNTVYLQMNSLNPEDTAVYSCARRDGTTQALFGYDYWGQGTQVTVSS | low polyreactivity
HVQLVESGGGLVQAGGSLPLSCAASGLTFYYNAMGWYRQAPGNERELVAAISFSGGRTYYADSVKGRFTISRDNAKNTVYLQMNSLKPEDTAVYYCNTVGKQHLDYDYWGQGTQVTVSS | high polyreactivity
HVQLVESGGGLVQAGGSLRLICAASGRSFSPYAMGWYRLAPGKERELVAAITNGDSTNYADSVKGRFTISRDNAKNTVYLLMNSLKPEDTAVYYCNAAAEISSFDYDYWGQGTQVTVSS | low polyreactivity
HVQLVESGGGLVQAGGSLRLSCAASGFIFVSYAMGWYRQAPGKERELVAAITWSTTSTYYADSVKGRFTISRDNAKNTVYLQMNSLKPEDTAVYYCAKYNFQYKHDYWGQGTQVTVSS | low polyreactivity
HVQLVESGGGLVQAGGSLRLSCAASGFIFWRYAMGWYRQAPGKERELVAAISVSGTRTYYADSVKGRFTISRDNAKNTVYLQMNSLKPEDTAVYYCAADRYYGEDYWGQGTQVTVSS | high polyreactivity
HVQLVESGGGLVQAGGSLRLSCAASGFIGIYAMGWYRQAPGKERELVAAITTSGGRTYYADSVKGRFTISRDNAKNTVYLQMNSLKPEDTAVYYCAAPWRLFSLYDYWGQGTQVTVSS | low polyreactivity
HVQLVESGGGLVQAGGSLRLSCAASGFTFDAYAMGWYRQAPGKERELVAAISFSGGSTYYADSVKGRFTISRDNAKNTVYLQMNSLKPEDTAVYYCAAYSYTRTYGRHNYWGQGTQVTVSS | high polyreactivity
HVQLVESGGGLVQAGGSLRLSCAASGITLTIYVMGGYRQAPGKERELVAAISTSGGSTYYADSVKGRFTISRDNAKNTDYLQMNSLKPEDTAVYYCNATPLRRYYGRYLMDYWGQGTQVTVSS | high polyreactivity
HVQLVESGGGLVQAGGSLRLSCAASGLTFTRYTMGWSRQAPGKERELVAAITSSGGSTYYADSVKGRFTISRDNAKNTVYLQMNSLKPEDTAVYDCAARTGYGYGARRTLKSRYDYWGQGTQVTVSS | high polyreactivity
HVQLVESGGGLVQAGGSLRLSCAASGRIFDWNAMGWYRPAPGKEWELVAAISSRSGGTYYADSVKGRFTISRDNAKNTVYFQMNSLKPEDTAVYYCAADYYWYGRFEYGYWGQGTQVTVSS | low polyreactivity
HVQLVESGGGLVQAGGSLRLSCAASGRIFGYNAMGWYRQAPGKERELVAAISYSGGSTYYADSVKGRFTISRDNAKNTVYLQMYSLKPEDTAVYYGAARGHYASLFGGYFHYNYWGQGPQVTVSS | high polyreactivity
HVQLVESGGGLVQAGGSLRLSCAASGRIFYYNAMGWYRQAPGKERELVAVITWRGGTTYYADSVKGRFTTSRDTAKNTVYLQMNSLKPEDTAVYYCAADTGAFDGYYRQPRIRFDYWGQGTQVTVSS | high polyreactivity
HVQLVESGGGLVQAGGSLRLSCAASGRTFGAYAMGWYRQAPGKERELVAAISKSGGRTYYADSVKGRFTISRDNAKNTVYLQMNSLKPEDSAVYYCNARGFRGEYDYWGQGTQVTVSS | high polyreactivity
HVQLVESGGGLVQAGGSLRLSCAASGRTFGIYAMGWYRHAPGKQRELVAAISKIGTRTYYADSVKGRFTISRDNAKNTVYLQMNSLNPEDTAVYYCAAYPVDAVYQAYRYPYYDEMDYWGQGTQVTVSS | low polyreactivity
HVQLVESGGGLVQAGGSLRLSCAASGRTFPYYAMGWYRQAPGKERELVAGITSNAGSTYYADSVKGRFTISRDNAKNTVYLLMNSLKPEDTAVYYCAKTKAGRWTTFKFGYWGQGTQVTVSS | high polyreactivity
HVQLVESGGGLVQAGGSLRLSCAASGRTFVNYTMGWYRQAPGKVRELVAAIRYRDGSTYYADSVKGRFTISRDNAKKTVYLQMNSLKPEDTAVYYCNNRITQVGDYIYDYWRQGTQVTVSS | low polyreactivity
HVQLVESGGGLVQAGGSLRLSCAASGSIFAKNAMGWYREAPGKERELVAGIDFSGGSTYYADSVKGRFTISRDNAKNTVYLQMNSLKPEDTAVYYCAADWAYKYELDYWGQGTQVTVSS | low polyreactivity
HVQLVESGGGLVQAGGSLRLSCAASGSIFDDYAMGWYRQAPGKERELVAAISSSGTSTYYADSVKGRFTISRDNAKNTVYLQMNSLKPEDTAVYYCAARSAILKSGYLMDYWGQGTQVTVSS | low polyreactivity
HVQLVESGGGLVQAGGSLRLSCAASGSIFFVYDMGWYRQAPGKERELVAAITWSGGRTTYADSVKGRFTISRDNAKNTVYLQMNSLKPVDTAVYYCAAGRVRLRILWGKRGWYDYWGQGTQVTVSS | low polyreactivity
HVQLVESGGGLVQAGGSLRLSCAASGSIFILYAMGWSRQAPGKERELLASISSSGGRTYYADSVKGRFTISRDNAKNTVYLQMNSLKPEDTAVYYCNAVGRYWSYGTIYDYWGHGTQVTVSS | high polyreactivity
HVQLVESGGGLVQAGGSLRLSCAASGSIFVPYTMGWSRQAPGKERELVAAINSSDDSKFYADSVKGRFTISRDNAKNPVYLQMNSLKPEDTAVYYCAASYYYTIGPYFRKFDWGQGTQVTVSS | low polyreactivity

Source: the nanobody polyreactivity screen of Harvey et al. (2022)
